Results: patent US20200392227A1 (LYVGEN BIOPHARMA, published 2020)
Changes are numbered by the printed parent chain. Values belong to the binder of their own block, whether it stands above or below them.

How the values were obtained:
[1] = biological target: T1, human FcRI protein (MednaBio, E1031) (human, UniProt P12314 16-288, limits assumed); assay: BLI
T1 construct: Bought; loaded on anti-penta-HIS biosensors; also called FcγRI
Protocol: (§1) These IgG mutants were tested for binding to a panel of human Fc receptors (FcRs), including FcRn, using the Octet Red96 System (ForteBio, Model #Red96). Human FcR proteins were purchased commercially (FcRn, MednaBio, E1032; FcRI, MednaBio, E1031; FcRIIA, MednaBio, E1033; FcRIIB/C, MednaBio, E1034; FcRIIIA-F158, MednaBio, E1036; FcRIIIA-V158, MednaBio, E1035; FcRIIIB, MednaBio, E1037). All Fey receptor assays were performed at pH 7.2; all FcRn assays were performed at pH 6. The Fey receptors were loaded onto anti-penta-HIS1K (ForteBio, Cat #18-5122) biosensors at a concentration of 20 μg/mL. The loaded biosensors was then be dipped into an 8-point 1:3 dilution series of the test IgG molecules (including controls and the mutants described herein) in PBS with 0.1% BSA, 0.02% Tween-20 (pH 7.2) at a starting concentration of 300 nM. Kinetic analysis was performed using a 1:1 binding model and global fitting.

[2] = biological target: T2, human FcRIIA protein (MednaBio, E1033) (human, UniProt P12318 34-218, limits assumed); assay: BLI
T2 construct: Bought; also called FcγRIIA
T2 sequence (looked up): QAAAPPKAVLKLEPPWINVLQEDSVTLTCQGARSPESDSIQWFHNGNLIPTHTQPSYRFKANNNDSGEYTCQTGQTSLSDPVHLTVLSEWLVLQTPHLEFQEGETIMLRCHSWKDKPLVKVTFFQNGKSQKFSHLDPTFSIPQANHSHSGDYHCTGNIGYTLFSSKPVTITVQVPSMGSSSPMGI
Protocol: as §1

[3] = biological target: T3, human FcRIIB/C protein (MednaBio, E1034) (human, UniProt P31994 43-217, limits assumed); assay: BLI
T3 construct: Bought as FcRIIB/C; also called FcγRIIB; CD32B
T3 sequence (looked up): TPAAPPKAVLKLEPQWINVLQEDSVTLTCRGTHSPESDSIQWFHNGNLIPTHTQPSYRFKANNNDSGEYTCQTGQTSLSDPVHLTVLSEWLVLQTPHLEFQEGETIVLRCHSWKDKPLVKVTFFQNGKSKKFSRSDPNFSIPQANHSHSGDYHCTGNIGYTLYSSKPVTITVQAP
Protocol: as §1

[4] = biological target: T4, human FcRIIIA-F158 protein (MednaBio, E1036) (human, UniProt P08637 17-208); assay: BLI
T4 construct: Bought; also called FcγRIIIA(F)
T4 sequence (P08637 17-208 limits assumed): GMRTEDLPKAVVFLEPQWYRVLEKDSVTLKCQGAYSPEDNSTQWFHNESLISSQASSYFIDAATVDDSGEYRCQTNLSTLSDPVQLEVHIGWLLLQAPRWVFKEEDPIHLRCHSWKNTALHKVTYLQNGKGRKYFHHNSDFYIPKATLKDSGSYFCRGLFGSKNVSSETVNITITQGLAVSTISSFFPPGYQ
Protocol: as §1

[5] = biological target: T5, human FcRIIIA-V158 protein (MednaBio, E1035) (human, UniProt P08637 17-208); assay: BLI
T5 construct: Bought; also called FcγRIIIA(V); FcgRIIIA(V)
T5 sequence (P08637 17-208 F176V): as the sequence (P08637 17-208 limits assumed) above, with F160V counted along it
Protocol: as §1

[6] = biological target: T6, human FcRIIIB protein (MednaBio, E1037) (human, UniProt O75015 17-200); assay: BLI
T6 construct: Bought; also called FcγRIIIB; FcgRIIIB
T6 sequence (O75015 17-200 limits assumed): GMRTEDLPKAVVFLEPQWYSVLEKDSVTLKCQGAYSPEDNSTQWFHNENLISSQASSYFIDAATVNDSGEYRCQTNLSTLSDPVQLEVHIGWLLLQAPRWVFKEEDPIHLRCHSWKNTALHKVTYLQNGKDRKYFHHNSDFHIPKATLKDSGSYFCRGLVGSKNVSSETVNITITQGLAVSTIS
Protocol: as §1

[7] = biological target: T7, human FcRn protein (MednaBio, E1032) (human, UniProt P55899 24-297; P61769 21-119); assay: BLI
T7 construct: Bought; assays at pH 6
Protocol: as §1

[8] = biological target: T8, human FcγRIIB expressed on CHO cells (human, UniProt P31994 43-310); assay: FACS, CHO cells expressing FcγRIIB
T8 construct: whole, on cells; also called CD32B
T8 sequence (looked up): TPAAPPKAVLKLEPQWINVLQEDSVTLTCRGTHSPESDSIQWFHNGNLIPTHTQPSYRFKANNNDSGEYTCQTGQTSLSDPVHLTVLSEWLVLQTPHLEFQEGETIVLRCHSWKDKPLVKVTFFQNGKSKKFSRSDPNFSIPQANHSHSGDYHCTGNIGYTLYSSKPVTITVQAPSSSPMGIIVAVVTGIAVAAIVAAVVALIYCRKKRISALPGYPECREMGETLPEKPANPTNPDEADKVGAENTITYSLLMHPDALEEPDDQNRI
Protocol: (§2) For FACS analysis of the IgG mutants' binding to different FcγRs, FcγR overexpressing CHO cells were harvested using trypsin-EDTA and were suspended in cold staining buffer (3% BSA in PBS). Test IgG mutants, which were diluted in staining buffer, were added into the cells. The mixture was incubated 4° C. for 2 hours, and then washed twice with cold staining buffer and re-suspended in PE-labeled anti-human IgG followed by incubation at 4° C. for 2 hours. The mixture was washed twice with staining buffer and re-suspended in 2% PFA in PBS for FACS.

[9] = biological target: T9, human FcγRIIC expressed on CHO cells (human, UniProt P31995 43-323); assay: FACS, CHO cells expressing FcγRIIC
T9 construct: whole, on cells
T9 sequence (looked up): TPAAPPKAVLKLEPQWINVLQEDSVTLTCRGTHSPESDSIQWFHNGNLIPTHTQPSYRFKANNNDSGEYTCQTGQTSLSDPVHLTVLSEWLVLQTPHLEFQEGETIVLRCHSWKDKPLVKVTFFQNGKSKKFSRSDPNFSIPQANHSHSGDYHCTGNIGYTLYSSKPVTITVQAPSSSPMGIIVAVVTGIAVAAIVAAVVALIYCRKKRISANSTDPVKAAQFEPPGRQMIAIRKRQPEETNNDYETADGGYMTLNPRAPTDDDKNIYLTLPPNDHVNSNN

[10] = biological target: T10, human FcγRIIA(H131) expressed on CHO cells (human, UniProt P12318 34-317); assay: FACS, CHO cells expressing FcγRIIA(H131)
T10 construct: whole, on cells
T10 sequence (looked up): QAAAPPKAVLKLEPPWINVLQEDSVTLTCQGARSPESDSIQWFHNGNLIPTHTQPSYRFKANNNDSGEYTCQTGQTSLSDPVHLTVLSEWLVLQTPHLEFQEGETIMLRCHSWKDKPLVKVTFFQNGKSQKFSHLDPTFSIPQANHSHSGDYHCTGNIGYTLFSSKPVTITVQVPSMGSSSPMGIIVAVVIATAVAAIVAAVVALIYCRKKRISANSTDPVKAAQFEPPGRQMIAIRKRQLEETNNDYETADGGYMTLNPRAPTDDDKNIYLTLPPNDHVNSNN
Protocol: as §2

[11] = biological target: T11, human FcγRI expressed on CHO cells (human, UniProt P12314 16-374); assay: FACS, CHO cells expressing FcγRI
T11 construct: whole, on cells
T11 sequence (P12314 16-374): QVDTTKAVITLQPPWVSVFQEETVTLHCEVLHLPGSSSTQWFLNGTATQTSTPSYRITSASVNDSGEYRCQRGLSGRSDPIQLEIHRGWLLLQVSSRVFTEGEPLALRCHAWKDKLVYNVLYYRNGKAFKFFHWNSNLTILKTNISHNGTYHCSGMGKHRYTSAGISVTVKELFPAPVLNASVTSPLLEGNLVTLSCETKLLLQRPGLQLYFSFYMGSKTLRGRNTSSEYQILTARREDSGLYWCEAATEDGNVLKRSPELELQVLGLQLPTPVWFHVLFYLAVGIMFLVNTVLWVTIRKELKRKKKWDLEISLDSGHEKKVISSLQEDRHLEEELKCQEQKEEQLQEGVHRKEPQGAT
In short: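 Trypsin-harvested CHO cells overexpressing each FcγR were incubated 2 h at 4 °C with IgG mutants in 3% BSA/PBS. Bound IgG was detected with PE-labeled anti-human IgG (2 h, 4 °C), then cells were fixed in 2% PFA and analysed by flow cytometry.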

[12] = biological target: T12, human FcγRIIA(R131) expressed on CHO cells (human, UniProt P12318 34-317); assay: FACS, CHO cells expressing FcγRIIA(R131)
T12 construct: whole, on cells
T12 sequence (looked up): T10 sequence (looked up) with H134R

T1 sequence (P12314 16-288 limits assumed): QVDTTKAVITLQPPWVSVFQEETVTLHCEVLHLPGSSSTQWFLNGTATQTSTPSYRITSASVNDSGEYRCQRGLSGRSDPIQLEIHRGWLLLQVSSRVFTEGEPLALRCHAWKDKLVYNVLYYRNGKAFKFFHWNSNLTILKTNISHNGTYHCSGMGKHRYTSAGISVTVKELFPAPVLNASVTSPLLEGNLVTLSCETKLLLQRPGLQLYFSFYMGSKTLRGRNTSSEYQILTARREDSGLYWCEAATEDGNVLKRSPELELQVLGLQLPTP

binding result [1]: no binding (tested: 300 nM)
binding result [2]: no binding (tested: 300 nM)
binding result [3]: no binding (tested: 300 nM)
binding result [4]: no binding (tested: 300 nM)
binding result [5]: no binding (tested: 300 nM)
binding result [6]: no binding (tested: 300 nM)
Kd [7]: 13 nM
koff [7]: 0.0093 s⁻¹
kon [7]: 710000 M⁻¹ s⁻¹
binding result [8]: no binding (tested: 10 ug/ml)
binding result [9]: no binding (tested: 10 ug/ml)
binding result [10]: no binding (tested: 10 ug/ml)
B1: anti-CD137 IgG1 with Fc variant G1m2 (antibody)
heavy: EVQLVQSGAEVKKPGESLRISCKGSGYSFSTYWISWVRQMPGKGLEWMGKIYPGDSYTNYSPSFQGQVTISADKSISTAYLQWSSLKASDTAMYYCARGYGIFDYWGQGTLVTVSSASTKGPSVFPLAPSSKSTSGGTAALGCLVKDYFPEPVTVSWNSGALTSGVHTFPAVLQSSGLYSLSSVVTVPSSSLGTQTYICNVNHKPSNTKVDKKVEPKSCDKTHTCPPCPAPELLGPSVFLFPPKPKDTLMISRTPEVTCVVVDVSHEDPEVKFNWYVDGVEVHNAKTKPREEQYNSTYRVVSVLTVLHQDWLNGKEYKCKVSNKALPAPIEKTISKAKGQPREPQVYTLPPSREEMTKNQVSLTCLVKGFYPSDIAVEWESNGQPENNYKTTPPVLDSDGSFFLYSKLTVDKSRWQQGNVFSCSVMHEALHNHYTQKSLSLSPGK
light: SYELTQPPSVSVSPGQTASITCSGDNIGDQYAHWYQQKPGQSPVLVIYQDKNRPSGIPERFSGSNSGNTATLTISGTQAMDEADYYCATYTGFGSLAVFGGGTKLTVLGQPKAAPSVTLFPPSSEELQANKATLVCLISDFYPGAVTVAWKADSSPVKAGVETTTPSKQSNNKYAASSYLSLTPEQWKSHRSYSCQVTHEGSTVEKTVAPTECS
notes: copies: 2 + 2

binding result [1]: no binding (tested: 300 nM)
binding result [2]: no binding (tested: 300 nM)
binding result [3]: no binding (tested: 300 nM)
binding result [4]: no binding (tested: 300 nM)
binding result [5]: no binding (tested: 300 nM)
Kd [7]: 5.5 nM
koff [7]: 0.00096 s⁻¹
kon [7]: 170000 M⁻¹ s⁻¹
binding result [11]: no binding (tested: 10 ug/ml)
binding result [8]: no binding (tested: 10 ug/ml)
binding result [9]: no binding (tested: 10 ug/ml)
binding result [10]: no binding (tested: 10 ug/ml)
binding result [12]: no binding (tested: 10 ug/ml)
B2: anti-CD137 IgG2 with Fc variant G2m1 (antibody)
heavy: EVQLVQSGAEVKKPGESLRISCKGSGYSFSTYWISWVRQMPGKGLEWMGKIYPGDSYTNYSPSFQGQVTISADKSISTAYLQWSSLKASDTAMYYCARGYGIFDYWGQGTLVTVSSASTKGPSVFPLAPCSRSTSESTAALGCLVKDYFPEPVTVSWNSGALTSGVHTFPAVLQSSGLYSLSSVVTVPSSNFGTQTYTCNVDHKPSNTKVDKTVERKCCVECPPCPAPPVASVFLFPPKPKDTLMISRTPEVTCVVVDVSHEDPEVQFNWYVDGVEVHNAKTKPREEQFNSTFRVVSVLTVVHQDWLNGKEYKCKVSNKGLPAPIEKTISKTKGQPREPQVYTLPPSREEMTKNQVSLTCLVKGFYPSDIAVEWESNGQPENNYKTTPPMLDSDGSFFLYSKLTVDKSRWQQGNVFSCSVMHEALHNHYTQKSLSLSPGK
light: B1 light
notes: copies: 2 + 2
